These results are taken from paper PMC6736072 (Nucleic Acids Research, 2019).

The assay concerns the target T1, His-MAD1 (recombinant, not phosphorylated by ULK1) (human, UniProt Q9Y6D9 1-718).
T1 sequence: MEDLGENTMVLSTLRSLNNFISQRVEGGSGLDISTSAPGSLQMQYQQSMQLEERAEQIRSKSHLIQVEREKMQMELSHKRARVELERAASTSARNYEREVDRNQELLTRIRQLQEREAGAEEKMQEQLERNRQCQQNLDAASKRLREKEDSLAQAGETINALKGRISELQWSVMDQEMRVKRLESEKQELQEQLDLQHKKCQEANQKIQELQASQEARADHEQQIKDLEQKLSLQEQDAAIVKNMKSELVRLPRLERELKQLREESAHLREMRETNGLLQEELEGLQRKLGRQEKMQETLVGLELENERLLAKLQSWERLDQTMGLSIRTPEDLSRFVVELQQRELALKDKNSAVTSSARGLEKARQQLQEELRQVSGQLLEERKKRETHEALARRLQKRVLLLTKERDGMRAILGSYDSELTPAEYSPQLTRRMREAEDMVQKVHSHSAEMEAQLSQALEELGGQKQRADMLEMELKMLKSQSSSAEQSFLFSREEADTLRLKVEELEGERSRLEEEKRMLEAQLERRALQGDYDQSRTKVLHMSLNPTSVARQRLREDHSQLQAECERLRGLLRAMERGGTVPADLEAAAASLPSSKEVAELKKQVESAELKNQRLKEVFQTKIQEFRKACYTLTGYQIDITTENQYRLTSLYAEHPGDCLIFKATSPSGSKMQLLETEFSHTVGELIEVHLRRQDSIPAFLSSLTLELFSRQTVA
As to the kind of experiment: pull-down.

B1: human FLAG-BUB1-(437-509), phosphorylated in vitro (domain or fragment)
chain: SFHTTPNTSLGMVQATPSKVQPSPTVHTKEALGFIMNMFQAPTLPDISDDKDEWQSLDQNEDAFEAQFQKNVR
In the case of B1, the binding result is “binds”.
